Laboratory results from patent US20230257460A1 (Eli Lilly, published 2023).

Columns and labels:
[1] = molecular target: T1, Human INSL5 (human); experiment: SPR (Biacore 8K), antibody captured on Protein A, INSL5 peptide as analyte, 37 C
T1 construct: also called human insulin-like peptide-5; human INSL5 peptide
T1 chain 1: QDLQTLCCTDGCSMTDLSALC
T1 chain 2: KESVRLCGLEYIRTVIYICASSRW
Protocol: (§1) Human INSL5 (Phoenix Pharmaceuticals Cat #035-70A) and mouse INSL5 (Phoenix Pharmaceuticals 035-40) are reconstituted at 0.5 (99 μM) or 1 mg/mL (195 μM) in DMSO, respectively. […] The antibodies of Example 1, 2, or a negative control are prepared by diluting them to 1 μg/mL in 1×HBS-EP+ buffer.
(§2) The experiment is conducted at 25° C. as well as at 37° C. and initiated with 5 start-up cycles of injecting 1×HBS-EP+ buffer. Then in each cycle, the antibody is captured onto flow cell 2 of channels 1-8 at 10 μL/min for 20 seconds. Next, 180 μL of the respective INSL5 peptide sample is individually injected across flow cells 1 and 2 for 180 seconds at 60 μL/min and then let dissociate for 1200 seconds at 60 μL/min flow rate. The surface is regenerated by injecting two 15 second pulses of 10 mM glycine-HCl pH 1.5 (BR-1003-54) at 30 μL/min. After a stabilization period of 60 seconds at a flow rate of 60 μL/min the next cycle is started.
(§3) The resulting sensorgrams are analyzed using Biacore 8K Evaluation Software). 1:1 binding kinetics model fitting is used to calculate the binding kinetic parameters association rate (ka), dissociation rate (kd), and equilibrium dissociation constant (KD).

[2] = molecular target: T2, Mouse INSL5 (mouse); experiment: as above
T2 construct: Bought two-chain peptide (Phoenix Pharmaceuticals Cat #035-40); also called mouse insulin-like peptide-5; mouse INSL5 peptide
T2 chain 1: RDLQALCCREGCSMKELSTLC
T2 chain 2: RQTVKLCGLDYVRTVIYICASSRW
Protocol: as §1, §2, §3

[3] = molecular target: T1, Human INSL5; experiment: SPR (Biacore 8K), antibody captured on Protein A, INSL5 peptide as analyte, 25 C
Protocol: as §1, §2, §3

[4] = molecular target: T2, Mouse INSL5; experiment: as above
Protocol: as §1, §2, §3

B1: Antibody I (antibody, V domains shown)
VH: QSVEESGGRLVTPGTPLTLTCTASGFSLSSYDMGWVRQTPGEGLEWVGTISAGGYTYYAHWAKGRFTISKSSTTVDLKMTSLTTEDTATYFCARERWNYDRSGGAGAGYFDLWGPGTLVTVSS
VL: DVVMTQTASPVSAAVGGTVTINCQASQSITSSYLSWYQQKPGQPPKLLIYPAANLASGVPSRFKGSGSGTQFTLTISGVQCDDAATYYCLYGYFSSSIDFAFGGGTEVVVRG
B1 was tested, and the Kd [1] was 0.11 nM, the koff [1] was 0.0026 s⁻¹ and the kon [1] was 2.4e+07 M⁻¹ s⁻¹. For the same binder, the Kd [2] was 0.0067 nM, the koff [2] was 0.00015 s⁻¹ and the kon [2] was 2.3e+07 M⁻¹ s⁻¹. The Kd [3] was 0.041 nM, the koff [3] was 0.00036 s⁻¹ and the kon [3] was 8.8e+06 M⁻¹ s⁻¹. The Kd [4] was 0.0046 nM, the koff [4] was 5.4e-05 s⁻¹ and the kon [4] was 1.2e+07 M⁻¹ s⁻¹.

B2: Antibody II (antibody, V domains shown)
VH: QSVEESGGGLVTPGGSLTLTCTVSGIDLTTYAMGWVRQAPGEGLEWIGIIGGGGRTYYAAWAKGRFTISKTSTTVDLRITSPATEDTATYFCVRGGDFFDLWGPGTLVTVSS
VL: AQVLTQTPASVSAAVGGTVTIKCQASEDISKYLSWYQQKPGQRPKLLIYYVSNLEFGVPSRFKGSGSGTEYTLTISDLECDDAATYYCHQGYTGVNVENVFGGGTEVVVRG
For B2, the Kd [1] was 0.081 nM, the koff [1] was 0.0033 s⁻¹ and the kon [1] was 4e+07 M⁻¹ s⁻¹. It also gave a Kd [2] of 0.014 nM, a koff [2] of 0.00072 s⁻¹ and a kon [2] of 5.1e+07 M⁻¹ s⁻¹. It also gave a Kd [3] of 0.021 nM, a koff [3] of 0.00034 s⁻¹ and a kon [3] of 1.6e+07 M⁻¹ s⁻¹. The Kd [4] was 0.0061 nM, the koff [4] was 0.00011 s⁻¹ and the kon [4] was 1.8e+07 M⁻¹ s⁻¹.
